The values that follow come from doi:10.1101/2024.10.23.619882.

Assay in all cases: pull-down
Test [1] concerns the target EGFP-tagged NHSL1-F1 with all 11 EndoA2 binding sites mutated (human).
Test [2] deals with EGFP-tagged NHSL1-F1 with the 9 EndoA2 sites that do not bind Abi mutated (human).
The target of test [3] is EGFP-tagged NHSL1-F1 with all 11 EndoA2 binding sites and both FP4 motifs mutated (human).
Test [4] concerns the target EGFP-tagged NHSL1-F1 with both FP4 motifs mutated (human).
The target of test [5] is EGFP-tagged NHSL1-F1 with the two Abi binding sites mutated (human).

Take “Myc-tagged wild-type EndoA2 (endophilin A2) (from UniProt O35964 1-368) (natural protein)”: the fold reduction in binding against wild-type NHSL1 in test [1] is 5 fold; in test [2], 5 fold; in test [3] it was 5 fold; in test [4], 2 fold; in test [5], 5 fold.
